Experimental data from paper PMC8005859 (2021).
Where “and” joins values, the source holds several entries; their conditions need not be identical. Identical values can stand only once.

Molecular target: SARS-CoV-2 S trimer (SARS-CoV-2, UniProt P0DTC2)
Assay: SPR

B1: P17 (antibody, V domains shown)
VH: QQLVESGGGVVQPGRSLRLSCAASGFTFSSYAMHWVRQAPGKGLEWVAVISYDGSNKYYADSVKGRFTISRDNSKNTLYLQMNSLRAEDTAVYYCARHATLMNNKDIWGQGTLVTVSS
VL: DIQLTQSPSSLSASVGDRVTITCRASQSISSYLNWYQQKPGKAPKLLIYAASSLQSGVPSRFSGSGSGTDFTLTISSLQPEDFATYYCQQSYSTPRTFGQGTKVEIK
  Kd: 0.14 nM and 0.08 nM and 0.06 nM
